The results in this text go back to the supplement of paper PMC9112550, “Optimization of the antimicrobial peptide Bac7 by deep mutational scanning” (BMC Biology, 2022).

The test system of the series is Escherichia coli TOP10. Description: shrunken log2 fold change of peptide-encoding DNA abundance (4.5 h post-induction vs induction); higher = less antimicrobial activity (less host growth inhibition). The following applies: time post-induction: 4.5 h; library: site-saturation at positions 5, 18, 19, 20.
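Also: peptides expressed intracellularly from a pBAD plasmid library in pooled LB shake-flask culture, induced with 0.3% L-arabinose, DNA abundance read by NGS, three biological replicates, DESeq2 with apeglm shrinkage.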

On to RRIRYRPPRLPRPRPRPPATPRP, for which the “shrunken log2 fold change” value amounted to 0.407.
Turning to RRIRERPPRLPRPRPRPQYVPRP, the “shrunken log2 fold change” value was -0.215.
For RRIRVRPPRLPRPRPRPKWLPRP, the “shrunken log2 fold change” value was 0.0936.
As for RRIRARPPRLPRPRPRPHKQPRP, the “shrunken log2 fold change” value is -0.0718.
Turning to RRIRCRPPRLPRPRPRPDQFPRP, the “shrunken log2 fold change” value came to 0.07.
In the case of RRIRARPPRLPRPRPRPHAAPRP, the “shrunken log2 fold change” value came out at 0.635.
With RRIRGRPPRLPRPRPRPMGWPRP, the “shrunken log2 fold change” value came out at 0.967.
The result for RRIRQRPPRLPRPRPRPHLGPRP reads -0.00552.
RRIRARPPRLPRPRPRPGCVPRP: the “shrunken log2 fold change” value was 0.851.
With RRIRPRPPRLPRPRPRPAFIPRP, the “shrunken log2 fold change” value was -0.222.
To RRIRVRPPRLPRPRPRPQPKPRP belongs 0.0199.
To RRIRRRPPRLPRPRPRPPCSPRP belongs 0.112; to RRIRMRPPRLPRPRPRPARGPRP, 1.1; to RRIRQRPPRLPRPRPRPLMSPRP, -0.0453.
The result for RRIRFRPPRLPRPRPRPWFGPRP reads -0.191; that for RRIRLRPPRLPRPRPRPPALPRP, 0.696.
Regarding RRIRARPPRLPRPRPRPNYPPRP, the “shrunken log2 fold change” value is -0.144.
RRIRGRPPRLPRPRPRPMNMPRP: the “shrunken log2 fold change” value is -0.318.
To RRIRKRPPRLPRPRPRPCKSPRP belongs -0.0499; to RRIRARPPRLPRPRPRPKAGPRP, 0.213.
With RRIRIRPPRLPRPRPRPIGHPRP, the “shrunken log2 fold change” value was -0.0672.
To RRIRDRPPRLPRPRPRPTFYPRP belongs -0.286; to RRIRHRPPRLPRPRPRPMHEPRP, 0.0983; to RRIRSRPPRLPRPRPRPQHWPRP, 0.015.
Regarding RRIRQRPPRLPRPRPRPMESPRP, the “shrunken log2 fold change” value was -0.0548.
For RRIRGRPPRLPRPRPRPFGTPRP, the “shrunken log2 fold change” value amounted to 0.196.
Regarding RRIRERPPRLPRPRPRPFAMPRP, the “shrunken log2 fold change” value is -0.207.
With RRIRYRPPRLPRPRPRPQEEPRP, the “shrunken log2 fold change” value was -0.0969.
The result for RRIRWRPPRLPRPRPRPYGTPRP reads -0.232; that for RRIRNRPPRLPRPRPRPTDNPRP, -0.353.
The result for RRIRRRPPRLPRPRPRPHTLPRP reads -0.182; that for RRIRWRPPRLPRPRPRPQWAPRP, 0.829.
For the sequence RRIRTRPPRLPRPRPRPARFPRP, the “shrunken log2 fold change” value is 0.128.
Take RRIRARPPRLPRPRPRPTLSPRP: the “shrunken log2 fold change” value worked out at 0.801.
Consider RRIRDRPPRLPRPRPRPCSYPRP, for which the “shrunken log2 fold change” value is -0.138.
The result for RRIRDRPPRLPRPRPRPNSFPRP reads -0.0585.
With RRIRWRPPRLPRPRPRPTSWPRP, the “shrunken log2 fold change” value worked out at 0.249.
RRIRRRPPRLPRPRPRPNHCPRP: the “shrunken log2 fold change” value was -0.142.
Regarding RRIRPRPPRLPRPRPRPTDYPRP, the “shrunken log2 fold change” value is -0.132.
To RRIRCRPPRLPRPRPRPTRFPRP belongs 0.696.
RRIRSRPPRLPRPRPRPRNRPRP: the “shrunken log2 fold change” value was -0.198.
With RRIRVRPPRLPRPRPRPMAWPRP, the “shrunken log2 fold change” value was -0.114.
The result for RRIRRRPPRLPRPRPRPDLHPRP reads 0.308; that for RRIRQRPPRLPRPRPRPMCYPRP, -0.01.
The result for RRIRQRPPRLPRPRPRPEECPRP reads -0.0135; that for RRIRARPPRLPRPRPRPWQGPRP, 0.0405.
As for RRIRQRPPRLPRPRPRPWNNPRP, the “shrunken log2 fold change” value was 0.079.
On to RRIRMRPPRLPRPRPRPNLSPRP, for which the “shrunken log2 fold change” value was -0.436.
On to RRIRRRPPRLPRPRPRPDRHPRP, for which the “shrunken log2 fold change” value was -0.0411.
For RRIRRRPPRLPRPRPRPFHIPRP, the “shrunken log2 fold change” value is -0.0758.
To RRIRYRPPRLPRPRPRPGTAPRP belongs -0.39.
For the sequence RRIRCRPPRLPRPRPRPPYFPRP, the “shrunken log2 fold change” value is -0.07.
As for RRIRNRPPRLPRPRPRPSKHPRP, the “shrunken log2 fold change” value was -0.545.
To RRIRVRPPRLPRPRPRPVVYPRP belongs 0.0805.
Take RRIRHRPPRLPRPRPRPEHDPRP: the “shrunken log2 fold change” value is -0.051.
To RRIRMRPPRLPRPRPRPMLFPRP belongs 0.138; to RRIRVRPPRLPRPRPRPFTEPRP, -0.423.
Turning to RRIRDRPPRLPRPRPRPNDRPRP, the “shrunken log2 fold change” value was -0.12.
Take RRIRVRPPRLPRPRPRPFPFPRP: the “shrunken log2 fold change” value is -0.199.
The result for RRIRHRPPRLPRPRPRPKLGPRP reads -0.249; that for RRIRPRPPRLPRPRPRPPTYPRP, -0.204.
The result for RRIRNRPPRLPRPRPRPGPAPRP reads 0.627.
Consider RRIRPRPPRLPRPRPRPAPCPRP, for which the “shrunken log2 fold change” value was 0.236.
To RRIRMRPPRLPRPRPRPLRQPRP belongs -0.214.
As to RRIRDRPPRLPRPRPRPDGVPRP, the “shrunken log2 fold change” value is -0.0199.
In the case of RRIRGRPPRLPRPRPRPINIPRP, the “shrunken log2 fold change” value worked out at 0.00461.
Regarding RRIRCRPPRLPRPRPRPIVKPRP, the “shrunken log2 fold change” value came to 0.0118.
The result for RRIRARPPRLPRPRPRPDIEPRP reads -0.0212.
The result for RRIRFRPPRLPRPRPRPQVPPRP reads -0.144; that for RRIRNRPPRLPRPRPRPNHQPRP, -0.241; that for RRIRKRPPRLPRPRPRPPHSPRP, 0.509.
Take RRIRHRPPRLPRPRPRPMCLPRP: the “shrunken log2 fold change” value was -0.0755.
For the sequence RRIRIRPPRLPRPRPRPMWDPRP, the “shrunken log2 fold change” value amounted to 0.205.
Consider RRIRTRPPRLPRPRPRPGIDPRP, for which the “shrunken log2 fold change” value was -0.0352.
The result for RRIRARPPRLPRPRPRPYTPPRP reads -0.373; that for RRIRRRPPRLPRPRPRPWTMPRP, -0.257; that for RRIRRRPPRLPRPRPRPNQHPRP, 0.00413.
Take RRIRERPPRLPRPRPRPNHKPRP: the “shrunken log2 fold change” value was -0.823.
The result for RRIRPRPPRLPRPRPRPPALPRP reads 0.388; that for RRIRSRPPRLPRPRPRPDTWPRP, -0.0193.
The result for RRIRTRPPRLPRPRPRPTMIPRP reads -0.413; that for RRIRLRPPRLPRPRPRPNYTPRP, -0.91; that for RRIRNRPPRLPRPRPRPWRTPRP, -0.323.
With RRIRSRPPRLPRPRPRPNMCPRP, the “shrunken log2 fold change” value was -0.138.
Take RRIRLRPPRLPRPRPRPHCQPRP: the “shrunken log2 fold change” value was -0.0416.
With RRIRVRPPRLPRPRPRPHRSPRP, the “shrunken log2 fold change” value is -0.164.
The result for RRIRDRPPRLPRPRPRPPEDPRP reads 0.402; that for RRIRARPPRLPRPRPRPCLGPRP, 0.0637; that for RRIRMRPPRLPRPRPRPMNRPRP, -0.24.
For RRIRQRPPRLPRPRPRPGMNPRP, the “shrunken log2 fold change” value came out at 0.0205.
Consider RRIRMRPPRLPRPRPRPWLGPRP, for which the “shrunken log2 fold change” value worked out at 0.221.
On to RRIRSRPPRLPRPRPRPNWLPRP, for which the “shrunken log2 fold change” value came to 0.18.
To RRIRMRPPRLPRPRPRPSKLPRP belongs -0.0679; to RRIRNRPPRLPRPRPRPSNIPRP, -0.28; to RRIRSRPPRLPRPRPRPPMCPRP, 0.00128.
To RRIRERPPRLPRPRPRPTFPPRP belongs -0.44; to RRIRKRPPRLPRPRPRPTHTPRP, 0.285; to RRIRMRPPRLPRPRPRPEYRPRP, -0.000921.
The result for RRIRGRPPRLPRPRPRPTTFPRP reads 0.608; that for RRIRDRPPRLPRPRPRPDKTPRP, 0.0138; that for RRIRSRPPRLPRPRPRPSFSPRP, -0.351.
For the sequence RRIRDRPPRLPRPRPRPEKPPRP, the “shrunken log2 fold change” value is -0.173.
For the sequence RRIRQRPPRLPRPRPRPPWGPRP, the “shrunken log2 fold change” value was found to be 0.242.
To RRIRNRPPRLPRPRPRPCGEPRP belongs 0.0369; to RRIRYRPPRLPRPRPRPKQVPRP, 0.234; to RRIRTRPPRLPRPRPRPKVMPRP, -0.243.
To RRIRWRPPRLPRPRPRPGARPRP belongs 0.659; to RRIRHRPPRLPRPRPRPTSGPRP, -0.0493.
In the case of RRIRKRPPRLPRPRPRPCSCPRP, the “shrunken log2 fold change” value was determined as 0.018.
The result for RRIRARPPRLPRPRPRPCVMPRP reads -0.0813.
To RRIRGRPPRLPRPRPRPAKRPRP belongs 0.504; to RRIRVRPPRLPRPRPRPATIPRP, -0.101; to RRIRNRPPRLPRPRPRPTHPPRP, -0.235.
RRIRQRPPRLPRPRPRPHVEPRP: the “shrunken log2 fold change” value is -0.00703.
To RRIRIRPPRLPRPRPRPKREPRP belongs 0.0342; to RRIRKRPPRLPRPRPRPFELPRP, -0.000946.
Regarding RRIRNRPPRLPRPRPRPNDYPRP, the “shrunken log2 fold change” value is -0.365.
For the sequence RRIRSRPPRLPRPRPRPRKCPRP, the “shrunken log2 fold change” value is 0.149.
To RRIRMRPPRLPRPRPRPPCDPRP belongs 0.506; to RRIRVRPPRLPRPRPRPPYDPRP, -0.0602; to RRIRQRPPRLPRPRPRPMLVPRP, 0.142.
To RRIRGRPPRLPRPRPRPDHWPRP belongs 0.186; to RRIRNRPPRLPRPRPRPFIMPRP, -0.889.
As to RRIRIRPPRLPRPRPRPNGDPRP, the “shrunken log2 fold change” value stood at 8.33e-05.
The result for RRIRKRPPRLPRPRPRPFCCPRP reads 0.27.
